Measurements as given in patent publication US20180371086A1.

Molecular target: human CD3, on primary human T cells (human) (UniProt P07766)
Experiment: cell-based or functional assay

human CD3, on primary human T cells (human), sequence (P07766 23-207 limits assumed): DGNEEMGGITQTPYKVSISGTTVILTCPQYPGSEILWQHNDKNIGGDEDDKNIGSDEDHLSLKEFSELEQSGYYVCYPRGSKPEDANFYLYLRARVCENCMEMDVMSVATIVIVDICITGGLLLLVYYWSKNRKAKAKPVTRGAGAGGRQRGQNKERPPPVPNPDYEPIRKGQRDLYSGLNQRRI

Substance: PGT-121.60 (antibody)
- CD69 EC50; CD4 T cells; donor D1597; 7552-infected CEM cells: > 100 µg/mL
- CD69 EC50; CD4 T cells; donor D1597; THRO-infected CEM cells: > 100 µg/mL
- CD69 EC50; CD4 T cells; donor D1597; uninfected CEM cells: > 100 µg/mL
- CD69 EC50; CD4 T cells; donor D2256; 7552-infected CEM cells: > 100 µg/mL
- CD69 EC50; CD4 T cells; donor D2256; THRO-infected CEM cells: > 100 µg/mL
- CD69 EC50; CD4 T cells; donor D2256; uninfected CEM cells: > 100 µg/mL
- CD69 EC50; CD4 T cells; donor D4246; 7552-infected CEM cells: > 100 µg/mL
- CD69 EC50; CD4 T cells; donor D4246; THRO-infected CEM cells: > 100 µg/mL
- CD69 EC50; CD4 T cells; donor D4246; uninfected CEM cells: > 100 µg/mL
- CD69 EC50; CD4 T cells; donor D4279; 7552-infected CEM cells: > 100 µg/mL
- CD69 EC50; CD4 T cells; donor D4279; THRO-infected CEM cells: > 100 µg/mL
- CD69 EC50; CD4 T cells; donor D4279; uninfected CEM cells: > 100 µg/mL
- CD69 EC50; CD8 T cells; donor D1597; 7552-infected CEM cells: > 100 µg/mL
- CD69 EC50; CD8 T cells; donor D1597; THRO-infected CEM cells: > 100 µg/mL
- CD69 EC50; CD8 T cells; donor D1597; uninfected CEM cells: > 100 µg/mL
- CD69 EC50; CD8 T cells; donor D2256; 7552-infected CEM cells: > 100 µg/mL
- CD69 EC50; CD8 T cells; donor D2256; THRO-infected CEM cells: > 100 µg/mL
- CD69 EC50; CD8 T cells; donor D2256; uninfected CEM cells: > 100 µg/mL
- CD69 EC50; CD8 T cells; donor D4246; 7552-infected CEM cells: > 100 µg/mL
- CD69 EC50; CD8 T cells; donor D4246; THRO-infected CEM cells: > 100 µg/mL
- CD69 EC50; CD8 T cells; donor D4246; uninfected CEM cells: > 100 µg/mL
- CD69 EC50; CD8 T cells; donor D4279; 7552-infected CEM cells: > 100 µg/mL
- CD69 EC50; CD8 T cells; donor D4279; THRO-infected CEM cells: > 100 µg/mL
- CD69 EC50; CD8 T cells; donor D4279; uninfected CEM cells: > 100 µg/mL
- CD69 Δ Emax; CD4 T cells; donor D1597; 7552-infected CEM cells: 0%
- CD69 Δ Emax; CD4 T cells; donor D1597; THRO-infected CEM cells: 0%
- CD69 Δ Emax; CD4 T cells; donor D1597; uninfected CEM cells: 1%
- CD69 Δ Emax; CD4 T cells; donor D2256; 7552-infected CEM cells: 0%
- CD69 Δ Emax; CD4 T cells; donor D2256; THRO-infected CEM cells: 0%
- CD69 Δ Emax; CD4 T cells; donor D2256; uninfected CEM cells: 0%
- CD69 Δ Emax; CD4 T cells; donor D4246; 7552-infected CEM cells: 3%
- CD69 Δ Emax; CD4 T cells; donor D4246; THRO-infected CEM cells: 1%
- CD69 Δ Emax; CD4 T cells; donor D4246; uninfected CEM cells: -1%
- CD69 Δ Emax; CD4 T cells; donor D4279; 7552-infected CEM cells: 3%
- CD69 Δ Emax; CD4 T cells; donor D4279; THRO-infected CEM cells: 0%
- CD69 Δ Emax; CD4 T cells; donor D4279; uninfected CEM cells: 0%
- CD69 Δ Emax; CD8 T cells; donor D1597; 7552-infected CEM cells: 0%
- CD69 Δ Emax; CD8 T cells; donor D1597; THRO-infected CEM cells: 0%
- CD69 Δ Emax; CD8 T cells; donor D1597; uninfected CEM cells: 0%
- CD69 Δ Emax; CD8 T cells; donor D2256; 7552-infected CEM cells: 0%
- CD69 Δ Emax; CD8 T cells; donor D2256; THRO-infected CEM cells: 0%
- CD69 Δ Emax; CD8 T cells; donor D2256; uninfected CEM cells: 0%
- CD69 Δ Emax; CD8 T cells; donor D4246; 7552-infected CEM cells: 0%
- CD69 Δ Emax; CD8 T cells; donor D4246; THRO-infected CEM cells: 0%
- CD69 Δ Emax; CD8 T cells; donor D4246; uninfected CEM cells: 0%
- CD69 Δ Emax; CD8 T cells; donor D4279; 7552-infected CEM cells: -4%
- CD69 Δ Emax; CD8 T cells; donor D4279; THRO-infected CEM cells: 0%
- CD69 Δ Emax; CD8 T cells; donor D4279; uninfected CEM cells: 0%
